According to patent US7732592B2, “ALK protein tyrosine kinase, cells and methods embodying and using same” (New York University, priority 2003, dated 2010):

Columns and labels:
[1] = tested on: NPM-ALK; assay: Co-transfection of pSUPER shRNA vectors with Pallino-NPM-ALK in HEK-293T cells, Western blot; format: cell-based; settings: HEK-293T co-transfected with Pallino-NPM-ALK; after 48 hrs from transfection
Procedure: FIG. 8. Selection of anti-ALK shRNA. […] HEK-293T were co-transfected with Pallino NPM-ALK (2 μg) and one of six different pSUPER vectors carrying shRNA specific for ALK sequences (pS-A1-6)(8 μg). […] (pS-p53) (B) ALK5 (A5) inhibits ATIC-ALK protein expression. HEK-293T were co-transfected with Pallino ATIC-ALK and pSUPER-ALK shRNA interfering sequences as above. Expression of ATIC-ALK protein was determined by Western blot analysis as described above. (C) ALK5 (A5) inhibits ALK receptor (ALK-R) protein expression. HEK-293T cells were co-transfected with Pallino ALK-R and pSUPER-ALK shRNA interfering sequences as above.
(§1) Transfections of HEK-293T, GP-293, and MEF Tet-Off cells were performed with Effectene reagent (Qiagen, Valencia, Calif., USA), according to the manufacturer's instructions.
For Western Blot analysis, cells were lysed (50 mM Tris-HCl, pH 7.4, 150 mM NaCl, 0.1% Triton X-100, 5 mM EDTA, 1 mM Na3VO4, and 1 mM phenylmethyl sulfonyl fluoride and protease inhibitors). Total protein lysates (20 μg) were electrophoresed in SDS-PAGE gel and transferred onto nitrocellulose membranes. The filters were first blocked (5% low fat milk in PBS with 0.1% Tween 20; 1 h at RT), and then incubated with the primary antibodies for 1 hour at room temperature. […]

[2] = tested on: ATIC-ALK; assay: Co-transfection of pSUPER shRNA vectors with Pallino ATIC-ALK in HEK-293T cells, Western blot; format: cell-based; settings: transfected HEK-293T cells
Procedure: (§2) FIG. 8. Selection of anti-ALK shRNA. […] HEK-293T were co-transfected with Pallino NPM-ALK (2 μg) and one of six different pSUPER vectors carrying shRNA specific for ALK sequences (pS-A1-6)(8 μg). Cells were lysed 72 hours post-transfection and immunoblotted with the indicated antibodies. −=no transfection; A pSUPER-shRNA carrying a p53 specific sequence was used a unrelated control. (pS-p53) (B) ALK5 (A5) inhibits ATIC-ALK protein expression. HEK-293T were co-transfected with Pallino ATIC-ALK and pSUPER-ALK shRNA interfering sequences as above. Expression of ATIC-ALK protein was determined by Western blot analysis as described above. (C) ALK5 (A5) inhibits ALK receptor (ALK-R) protein expression. HEK-293T cells were co-transfected with Pallino ALK-R and pSUPER-ALK shRNA interfering sequences as above.
as §1
(§3) For Western Blot analysis, cells were lysed (50 mM Tris-HCl, pH 7.4, 150 mM NaCl, 0.1% Triton X-100, 5 mM EDTA, 1 mM Na3VO4, and 1 mM phenylmethyl sulfonyl fluoride and protease inhibitors). Total protein lysates (20 μg) were electrophoresed in SDS-PAGE gel and transferred onto nitrocellulose membranes. […]

[3] = tested on: ALK receptor (ALK-R); assay: Co-transfection of pSUPER shRNA vectors with Pallino ALK-R in HEK-293T cells, Western blot; format: cell-based; settings: transfected HEK-293T cells
Procedure: as §2, §1, §3

[4] = tested on: NPM-ALK; assay: NPM-ALK protein expression in MEF NPM-ALK Tet-Off cells after retroviral infection, Western blot; format: cell-based
Procedure: FIG. 9. Anti-ALK siRNA inhibits NPM-ALK-mediated transformation of MEF cells. (A) Suppression of NPM-ALK expression leads to down-regulation of known downstream targets of ALK. MEF NPM-ALK Tet-Off cells were infected with pSRG-A5 virus, transduction efficiency was assessed 72 hours post-infection by FACS analysis of GFP (40%). pSRG-A5-infected cells were further enriched by selection with 1 mg/ml puromycin for 1 week (90%). NPM-ALK expression was inhibited by doxycyclin withdrawn. Protein expression was evaluated culturing (72 hr) semi-confluent cells in absence of doxycyclin. (B) shRNA A-5 expression leads to G0/G1 cell cycle arrest. DNA content analysis was performed in cells grown to confluence and kept in 0.2% serum medium for 72 hours in presence of absence of doxycyclin. Cells were then listed and analysed by Western blotting with indicated antibodies. […] Tumor growth was monitored weekly for 4 weeks. […]
Retroviral supernatants were produced by co-transfection of GP-293 packaging cells with pSRGAx and pVSV-G (Clontech, Palo Alto, Calif., USA); virus-containing supernatants were collected at 48, 72 and 90 hours, filtrated and concentrated by centrifugation. […] Transfection and infection efficiencies were calculated using the percentage of GFP positive cells, identified using fluorescence microscopy (Leica IM RE2) or flow cytometry (FACSCalibur, BD Biosciences, San Josè, Calif., USA). […]

[5] = tested on: MEF-NPM-ALK cells; assay: Morphology of MEF-NPM-ALK cells after infection; format: cell-based
Source text: Since NPM-ALK expression in MEF cells leads to relevant morphological changes including cell elongation, bipolarized formations and loose plate attachment, the effect of inhibition of NPM-ALK expression on the phenotype of these cells was then studied. […] Furthermore, highly enriched GFP^+, puromycin resistant pSRG-A5MEF-NPM-ALK cells injected into athymic Nu/Nu mice (1×10^6 cells) grew poorly compared to control infected cells (FIG. 9 D).

[6] = tested on: TS cells; assay: Cell death of sorted GFP-positive TS cells by microscopy; format: cell-based, human; settings: sorted TS cells (>95% GFP), 24 hr after cell sorting
Procedure: FIG. 11. Anti-ALK siRNA inhibits growth and induces cell death in TS cells. ShRNA A5 leads ALK+ ALCL cells to cell death. Human TS cells were transduced with pSRG or pSRG-A5 constructs, and […], GFP-positive cells were sorted using MoFo sorter. (A) Highly enriched GFP+ cells (>95%) were evaluated (24 hours after sorting) using a light or fluorescent inverted microscope, (bright field: left panels). 5×10^3/well cells were plated (96-well plate) and the percentage of alive cells was calculated overtime (B). Total number of live cells was also calculated at day 3, 4 and 6 after sorting (C).
To study whether ALK siRNA could promote cell death, highly enriched A5-GFP-positive TS cells by cell sorting (>95% GFP) were evaluated by microscopy. […] These findings were confirmed with enumeration of viable cells by trypan blue exclusion (FIG. 11B) and proliferating cell quantitation using total cell counts (FIG. 11C).

B1: A5: short hairpin oligonucleotide against cytoplasmic domain of ALK, SEQ ID NO: 5; in pSUPER vector (nucleic acid)
chain: GATCCCCGGGCGAGCTACTATAGAAATTCAAGAGATTTCTATAGTAGCTCGCCCTTTTTGGAAA
- down-regulation of the protein level of NPM-ALK [1]: > 90%
- expression of ATIC-ALK [2]: successfully abrogate expression
- expression of ALK receptor [3]: successfully abrogate expression
- NPM-ALK protein expression ([4]; MEF NPM-ALK Tet-Off after doxycyclin withdrawal, proportional to percentage of GFP positive cells): significant down-regulation
- NPM-ALK level in MEF-NPM-ALK cells after infection ([4]; MEF-NPM-ALK cells): very low levels
- cellular morphology (transformed phenotype) [5]: regained their normal pre-transformed cellular features
- cells with shrunken, picnotic nuclei lacking detectable GFP expression [6]: > 50%
